Biological target: FleQ (Pseudomonas syringae pv. tomato DC3000) (UniProt Q884Y2)
Assay: EMSA
Settings: STAD: 25 mM Tris-acetate pH 8.0, 8 mM Mg-acetate, 10 mM KCl, 3.5% PEG-8000, 1 mM DTT, 10 ug/ml poly(dI-dC), 200 ug/ml BSA; 20 nM probe (Results: 1 nM); 30 min …

With “GTTCGATTAATCCAGTGAGCCTTTCGGTGCAGTTGGTCTGCGCCAACGCCACTGTCGGCGCGCCGCTGAATCTGGGTGACCTCAAGGCCGGTGAACGCTATAGCATCTTGCTGGTGCCGTCCGCCACAGGCCCGCGCCTGTTGTCGGCCACGGACACACTGTCCAACTGATCGGGTTCTGTCGTCGTTATGGTATTCGCCTCGCTTGAGTTTCTGATGGTGTTCCTGCCGGCTTTTTTGCTGGCCTATGCCGCAAGCCCGGCGGCGTGGCGCAACGTCGTTCTGTTGATCGGCAGTTGG (double strand) [wssH (wssH1)]” the binding was “no binding”.

From article PMC6478803
